In patent publication US10100341B2, “Tailored oils produced from recombinant oleaginous microorganisms” (Corbion Biotech, Inc., priority 2011, dated 2018):

B1: SugT Sugar transporter promoter/5′UTR: putative nitrogen-regulated promoter/5′UTR, SEQ ID NO: 59 (nucleic acid, listed as Prototheca moriformis)
DNA: CCAGGCAGGCGGTAGGGTTGCCGATTGCTTGAGCGAATTGGAAGATATAATTTTTTGTGGTGTCCCTGGACGCTGTTTGTGGCGCTCCTTTTTGGAGAAGATTGCGTGGGGGAGCTTTCCATGTACCACGCTTCCTTCTGAAAGGATTCTGGCCGAGTCCTGATGAGCCCAAAGAAAACACCTGCCTTTCAGTGCTGGCACTCTGAAAACGTCAACAGATGATTATACATGTCACAAAAGGCAGCCGATTAGGAACGGGAGCTCTGGCCGTTCGTTTGGCTGCCTGGGCTGATTGAAGTGATCCACCCTGTTCGAATGAAGGCGGTCGAGTCGAATTATCGACCGGAGCTGTCGGGAAGGCGTCCGGGGCAGAGTGAGGTGCTGCGGCCTGGTTGTCGTTCAAAAAGACCCCGGTAGCCCAACAATCACGAACGAAAGGAATATAATTGCTTGCATACTATACATTCAGTTTCTATGTGGCGGGTAGACAAGTCTCATGGGCTTCTAAAGGCTGTCCCTTGAAGGCTACTTATAAAAACTTGCTGCGCCATGGCACGGATCGCGCTTGCGCAGGCTGCAACCCTGCGCGCAAGGTCAAATACACAGCAAAAGATACTAACAGAATTTCTAAAAACATTTAAATATTTGTTTCGACCAGCCAATTGTGGTCGTAGGCACGCAAAAGACTTTGTTTTGCGCCCACCGAGCATCCACGCTGGCAGTCAAGCCAGTCCGATGTGCATTGCGTGGCAGCATCGAGGAGCATCAAAAACCTCGTGCACGCTTTTCTGTCAATCATCATCAACCACTCCACCATGTATACCCGATGCATCGCGGTGCGCAGCGCGCCACGCGTCCCAGACCCGCCCAAAAACCCAGCAGCGGCGAAAGCAAATCTTCACTTGCCCGAAACCCCGAGCAGCGGCATTCACACGTGGGCGAAAACCCCACTTGCCCTAACAGGCGTATGTCTGCTGTCACGATGCCTGACAACGGTATTATAGATATACACTGATTAATGTTTGAGTGTGTGCGAGTCGCGAATCAGGAATGAATTGCTAGTAGGCACTCCGACCGGGCGGGGGCCGAGGGACCA
B2: Amt03-Ammonium transporter 03 promoter/5′UTR: putative nitrogen-regulated promoter/5′UTR, SEQ ID NO: 60 (nucleic acid, listed as Prototheca moriformis)
DNA: GGCCGACAGGACGCGCGTCAAAGGTGCTGGGCGTGTATGCCCTGGTCGGCAGGTCGTTGCTGTTGCTGCGCTCGTGGTTCCGCAACCCTGATTTTGGCGTCTTATTCTGGCGTGGCAAGCGCTGACGCCCGCGAGCCGGGCCGGCGGCGATGCGGTGTCTCACGGCTGCCGAGCTCCAAGGGAGGCAAGAGCGCCCGGATCAGCTGAAGGGCTTTACACGCAAGGTACAGCCGCTCCTGCAAGGCTGCGTGGTGGACTTGAACCTGTAGGTCCTCTGCTGAAGTTCCTCCACTACCTCACCAGGCCCAGCAGACCAAAGCACAGGCTTTTCAGGTCCGTGTCATCCACTCTAAAACACTCGACTACGACCTACTGATGGCCCTAGATTCTTCATCAACAATGCCTGAGACACTTGCTCAGAATTGAAACTCCCTGAAGGGACCACCAGAGGCCCTGAGTTGTTCCTTCCCCCCGTGGCGAGCTGCCAGCCAGGCTGTACCTGTGATCGAGGCTGGCGGGAAAATAGGCTTCGTGTGCTCAGGTCATGGGAGGTGCAGGACAGCTCATGAAACGCCAACAATCGCACAATTCATGTCAAGCTAATCAGCTATTTCCTCTTCACGAGCTGTAATTGTCCCAAAATTCTGGTCTACCGGGGGTGATCCTTCGTGTACGGGCCCTTCCCTCAACCCTAGGTATGCGCGCATGCGGTCGCCGCGCAACTCGCGCGAGGGCCGAGGGTTTGGGACGGGCCGTCCCGAAATGCAGTTGCACCCGGATGCGCGGCGCCTTTCTTGCGATAATTTATGCAATGGACTGCTCTGCAAATTTCTGGGTCTGTCGCCAACCCTAGGATCAGCGGCGTAGGATTTCGTAATCATTCGTCCTGATGGGGAGCTACCGACTACCCTAATATCAGCCCGGCTGCCTGACGCCAGCGTCCACTTTTGCGTACACATTCCATTCGTGCCCAAGACATTTCATTGTGGTGCGAAGCGTCCCCAGTTACGCTCACCTGTTTCCCGACCTCCTTACTGTTCTGTCGACAGAGCGGGCCCACAGGCCGGTCGCAGCC
B3: Flap Flagellar-associated protein promoter/5′UTR: putative nitrogen-regulated promoter/5′UTR, SEQ ID NO: 57 (nucleic acid, listed as Prototheca moriformis)
DNA: CAACGACAACCAGCAGGCAACTCGGTCAGCGACCCAACACGCGAGTCAAATTGTTGCGTGTTCTTGCCTTGTCTATTTACTGTGATAGCAAGACTGTCGGTCAGTCAATACCGCGGTGCGCACGTCGGGGTGCCAAGCCTAGCAGAGCACGGGACGGCTGGTGCTGTGCGCCAGCTCAGCTCGCTTCGCGACCAATTGTAGGACCGGCAAAGTCACCAAAACATGCCAGCGGTGCGATTCAATTGGTCATGAGCTCTACAAAATTGTTTTGTGCGTCGCGCAGGTATCCAACGGCGCGGCAGAGAAAGTTTGACAGCTCTCGATTTCATCTCGGAAAAATGGGGAGAATTTATGACACACAAGTGCGCAGGCGGCCCAGGCGGCCAGCATATTCTGGCGTGACCTGGGCCGCCCACAAAATGCTTGGATGCACTCTAAAATAATTATATTTGCCATGAACAAGGGAAGAGTTACCGCACCCAGCCCTAGACTTGGGCGCCCGAGCAAGGTTACGTCAAGCCACCTTCGCCCATCGCCCAACTCCGTATTCCCCGACAGCCGCACGTGGCCCTCGCCGGAATGAACCCTGAATCGGCATCACGCCACGCGTTCGCCAATCGTTCCGCTCTCTGGCTTCATCGGCCTGCGCCTTCACGTCGTGGTCACGACAGTGCATTCATACTTCCATTTGCACCTCGGCACACACTTTTACGCATCGCCTACCCTTGCTGCGGCAGTCTAGGGTCACTTTGCAGCCATGGGACAGTGCTACACCACCGTCGGTGCGCAAAGCTATTTCAAGTGAACCGTGGGCGGAAAAAAGGAATGTACACTGTCTCAACCGACTCCTACAATTGTTTACCATGCAGATCAGAGCTCGACGGCCATCATCGAGCAGGTGTGGGGCCTTGGTGGCGCGGCGCGGGGCCCCAGGGCGTCGCAGGCATTGATGGCACTCTGAGACTTTCGCACGCGCATGAGGGACCCCATCAAGAGAAGAGTGTGTCTTTATGTCCCCATTCATGATGATGTATCTTGTGATTGTCGCAGTTTGGCAAGTTTAACCGGATCGCCGCTCCAGGTGTGGCGTGGCGGATTTTTCTAGGGGTGCTTGAGCAGTCG
B4: Aat01-Amino acid transporter 01 promoter/5′UTR: putative nitrogen-regulated promoter/5′UTR, SEQ ID NO: 62 (nucleic acid, listed as Prototheca moriformis)
DNA: CGAAGGGGTCTGCATCGATTCGCGCGGTCTGGAGGCCAGCGTGACTGCTCGCGAAAATGCTCTGCCGTGTCGGGCTCTGGCTGGGGCGGCCAGAGATCTCACCGTGCCACACGCAACTGCCGCACTCTGTGCCCGCCACCTGGCGCGCACATGCGACCTCTTCCCCGTCATACCCTCTCCTCATGTGATCTTTCCACACGAGTGACGCAGGTGCGCGGAGTGGAGGGAATCAGGACGTTTTCAAGGTACCTGCTCGAGCCGTACCAACAGCTGCCGCCCGGCAAGGAAGAGATCGAGGCAGAGATTGCCCGGCTGGAGGCCCGGATAACGGAGCTCAAGAGCAAGCTGTCCGAGTGAGACCGCCCAGGTGCACGTGTCGACTCGCTATGACATGTACTCGACACAACATGAGGAATTCATCGAATTTGTAGGAAGCGGGCATTGGTACGGGAGTGGGAAAGCGAAAAAACCTCCCTCCGGCAGTGCCATCTGCCGGAGTCGAACGTTGATAGGGTTCTCGTGACAGGGTGTGACCTCTCAGCCTTGCATCAATTAAACGCTATAGACATTATCAGTAACCGTGAATCCCGCATTGGATGCCACCCGCGCGACCATTGGGGACCTGCATTACAGATCTAGGTGAGATGACAGCGAGGCAACTTCGGCCCGCGGCCCAGCTTGCGGCGCACCAATATTGGTCACGGGAAGCCACACACCGACCATAAATGAATACTTGTAAGCTATGTCAACCGATCAATGGCGTCGAAAGTGTGCCACGAGGATCCATCTGGCGGGGCGGCGTGGCGCACAAGCGCAGTCGCAATTTCTCGGACCCATCTGACCTAGGCCCAGCGCCGCGGGAGAAATCCCCGGCGGGTCCTCCACGCAGTAACCCTAATGAGTATCGAGCGCCGACCATTTACACCATCGCCCCCGAAATCCTTCCGACATTATTATTATCTTTTAGATCTTGGAACAGACTCTGCCAACC
B5: SulfRed Sulfite reductase promoter/5′UTR: putative nitrogen-regulated promoter/5′UTR, SEQ ID NO: 58 (nucleic acid, listed as Prototheca moriformis)
DNA: GGCCCAGGGCCCTGCGGATGGCCCACACCAGATCTAGCCTCTCTTATGCCATGCCCGCCTCGCTGCCCGTCGTATCCCCCCGCCGATCCGCGCGTAGGGGACCGCGGCCTGACCCACGCCACGAAAGAGCTTTGCTCCTCAATTTCTCGCCAACAGAACCGTATCAAACGCTCAACGCCTATCCCGAACAATCCGTATTCACACCAAATCGAGTATACCGGACTGGTTTGCCTAGTCTTGAAGGAAATGATCCCGTCCATGCTCGGAAGGGGGAGCGGGCGGAGGATCCTACTCATCTCTGAAATGGGATTGGTCCGAAGATGGGTTGGGCAAGCACGTGCCAAACCCCAGCGAGTTGCTGACGAGCAGGCTCATCCAATCCCCCGGCGAATCCTCCCTCACGCCCCGCATGCATACAAGTCCCTCCCACACGCCCCCTCCCATCCATTTTCGCCTGGTCCGAACGCGAGCGGCGTCGAGGCGGACCACTTGCTCCGCAGCGCCGTCTGGGTCTCCACCCCACAGCGGCTTTGCTGCCAGAGGCACCCCCCTTGCCCCACCTCCTCTTGCAGCC

What follows are molecules tested on Prototheca moriformis (UTEX 1435) (assay: cDNA abundance by real-time RT-PCR under nitrogen depletion). Conditions: after 24 hours of culture in low nitrogen medium.
Type: cell-based
Description: A cDNA library was generated from Prototheca moriformis (UTEX 1435) using standard techniques. The Prototheca moriformis cells were grown for 48 hours under nitrogen replete conditions. […] After about 24 hours in culture, the nitrogen supply in the media was completely depleted. The collected samples were immediately frozen using dry ice and isopropanol. Total RNA was subsequently isolated from the frozen cell pellet samples and a portion from each sample was held in reserve for RT-PCR studies. The rest of the total RNA harvested from the samples was subjected to polyA selection. Equimolar amounts of polyA selected RNA from each condition was then pooled and used to generate a cDNA library in vector pcDNA 3.0 (Invitrogen). Roughly 1200 clones were randomly picked from the resulting pooled cDNA library and subjected to sequencing on both strands. Approximately 68 different cDNAs were selected from among these 1200 sequences and used to design cDNA-specific primers for use in real-time RT-PCR studies. RNA isolated from the cell pellet samples that were held in reserve was used as substrate in the real time RT-PCR studies using the cDNA-specific primer sets generated above. This reserved RNA was converted into cDNA and used as substrate for RT-PCR for each of the 68 gene specific primer sets. […] As discussed in the specification, nitrogen depletion/limitation is a known inducer of lipogenesis in oleaginous microorganisms. Fold increase refers to the fold increase in cDNA abundance after 24 hours of culture in low nitrogen medium.

Point of comparison: B1, “Fold increased (cDNA abundance)” value 17.35. Against it:
- B2 — lower, 10.1
- B3 — lower, 4.92
- B4 — lower, 6.21
- B5 — lower, 10.91

Each molecule was assayed on Prototheca moriformis (UTEX 1435) (assay: Steady state thioesterase mRNA level by real-time RT-PCR (promoter testing, normalized to cd189)). Conditions: low nitrogen medium.

With B4 the “steady state C. camphora thioesterase mRNA level relative to control (C. reinhardtii beta tubulin promoter)” value was “up to four”.
